Results: US6663869B1, “Polyoxime compounds and their preparation” (Gryphon Therapeutics, Inc., priority 1993, dated 2003)
The star is where a group is joined. aminooxyacetyl = NOCC(=O)*

What was measured:
[1] = storage stability as a powder at −20° C.; assay type: physicochemical
Description: Solvent was removed by vacuum centrifugation (Speed-Vac; Savant Instruments) without heating. […] Similar methods were used to prepare octa-GXL-baseplate (SEQ ID NO: 9).
The hexa-AOA-baseplate product (SEQ ID NO: 5) eluted during the isocratic elution at 5% B. The product eluted as a single peak on analytical RP-HPLC. The mass was determined by ESI-MS to be 1325.49+/−0.38 daltons as compared to the calculated mass of 1325.4 daltons. […] The storage vial was kept tightly sealed and volatile aldehydes were excluded.
Following solvent removal by vacuum centrifugation, the AOA-TCTP sample (SEQ ID NO: 4) was characterized by ESI-MS. The molecular weight of the sample was determined to be 1542.57+/−1.14 daltons, as compared to the expected value of 1541.73 daltons. The reaction yielded 120 mg AOA-TCTP from 1.3 g. AOA-polypeptidyl resin.

mouse melanoma cells = conditions: even when modified at the alpha-amino group and when linked as a homodimer (Bagutti et al. 1992); cited from earlier work
[2] = assay type: physicochemical; conditions: pH 7
B16-F1 melanoma cells = assay: in situ melanin assay (Bagutti 1992); assay type: cell-based; conditions: relative to full-length hormone
Description: The biological activity of MSH can be measured, for example, with an in situ melanin assay in which the peptide is tested for stimulation of B16-F1 melanoma cells (Bagutti 1992).
The binding and potency of some alpha-melanocyte stimulating hormone analog polyoximes were determined. Relative binding in the binding assay using mouse melanoma cells (Bagutti (1992)) refers to the average dissociation constant (Kd) for full-length natural hormone divided by the Kd for our oxime analog. Relative potency in the melanin assay (Bagutti (1992)) refers to the ratio of the concentrations (giving 50% of maximum effect) of full-length hormone and that of analog. Results with the analog of alpha-MSH, Nle-Asp-His-(D)Phe-Arg-Trp-Lys-amide, are provided.

With “NH2OCH2CO-ELGGGPGAGSLQPLALEGSLQKR-OH (aminooxyacetyl-ELGGGPGAGSLQPLALEGSLQKR-OH; SMILES CC(C)C[C@H](NC(=O)[C@H](C)NC(=O)[C@H](CC(C)C)NC(=O)[C@@H]1CCCN1C(=O)[C@H](CCC(N)=O)NC(=O)[C@H](CC(C)C)NC(=O)[C@H](CO)NC(=O)CNC(=O)[C@H](C)NC(=O)CNC(=O)[C@@H]1CCCN1C(=O)CNC(=O)CNC(=O)CNC(=O)[C@H](CC(C)C)NC(=O)[C@H](CCC(=O)O)NC(=O)CON)C(=O)N[C@@H](CCC(=O)O)C(=O)NCC(=O)N[C@@H](CO)C(=O)N[C@@H](CC(C)C)C(=O)N[C@@H](CCC(N)=O)C(=O)N[C@@H](CCCCN)C(=O)N[C@@H](CCCNC(=N)N)C(=O)O) [AOA-Pep C COSM]” the storage stability [1] was “stable for at least several months”.
With “NH2OCH2CO-Lys-Leu-Glu-Glu-Gln-Arg-Pro-Glu-Arg-Val-Lys-Gly-OH (aminooxyacetyl-KLEEQRPERVKG-OH; SMILES CC(C)C[C@H](NC(=O)[C@H](CCCCN)NC(=O)CON)C(=O)N[C@@H](CCC(=O)O)C(=O)N[C@@H](CCC(=O)O)C(=O)N[C@@H](CCC(N)=O)C(=O)N[C@@H](CCCNC(=N)N)C(=O)N1CCC[C@H]1C(=O)N[C@@H](CCC(=O)O)C(=O)N[C@@H](CCCNC(=N)N)C(=O)N[C@H](C(=O)N[C@@H](CCCCN)C(=O)NCC(=O)O)C(C)C) [AOA-TCTP COSM]” the storage stability [1] was “stable for at least several months”.
In the case of Nle-Asp-His-(D-Phe)-Arg-Trp-Lys, the “binding to melanoma cells” value (mouse melanoma cells) is listed as “binds to melanoma cells”.
In the case of “OCH—CO-Gly3-[Lys(COCHO)]5-Gly-OH [hexa-GXL-baseplate]”, the storage stability [1] was “stable for at least several weeks”.
With “Ser-TCTP precursor COSM: TCTP 12-mer peptide with added N-terminal serine, SEQ ID NO: 2 (SKLEEQRPEVKG)” the storage stability [1] was “stable indefinitely”.
With “acetyl-Asp-Cys-Thr-Leu-Ile-Asp-Ala-Leu-Leu-Gly-Asp-Pro-His-amide (XCTLIDALLGDPX; N-terminal acetyl, C-terminal amide)” the “oxidized to the disulfide dimer” value [2] was “about 30%”.
For “control monooxime: aminooxyacetyl Nle-Asp-His-(D)Phe-Arg-Trp-Lys-amide oximated with acetaldehyde”, the “relative potency (ratio of concentrations giving 50% of maximum effect of full-length hormone and analog)” value (B16-F1 melanoma cells) was 1.78.
